According to paper PMC3634583:

Experiments:
[1] = Western blot of 293T lysate, 8 kDa BNP form; conditions: glycan lost; control: wild-type pre-proBNP
Western blot = conditions: glycan lost; control: wild-type pre-proBNP

Substance: proBNP1-108 (pro-B-type natriuretic peptide): T71A
- other: proteolytic processing [1]: increases
- other: proteolytic processing (Western blot): increases
